Patent US20220249369A1, “BIOLOGICAL BITS AS COMPUTABLE ELEMENTS WITHIN LIVING SYSTEMS” (GEORGIA TECH RESEARCH CORPORATION, priority 2018, published 2022)
Where no end group is shown, it is not given here. [ ]: non-standard residue; d: D form. The star is where a group is joined. 5FAM = O=C1OC2(c3ccc(O)cc3Oc3cc(O)ccc32)c2ccc(C(=O)*)cc21

Tests used:
plasmin = plasmin (Homo sapiens, UniProt P00747); test: Protease cleavage assay, U-gate on two-state protease bit; type: biochemical; conditions: n=3; for state probability (relative cleavage velocity) after first U-gate: plasmin exposed to state 0 and state 1 substrates
Sequence of plasmin (P00747 581-810 limits assumed, species assumed): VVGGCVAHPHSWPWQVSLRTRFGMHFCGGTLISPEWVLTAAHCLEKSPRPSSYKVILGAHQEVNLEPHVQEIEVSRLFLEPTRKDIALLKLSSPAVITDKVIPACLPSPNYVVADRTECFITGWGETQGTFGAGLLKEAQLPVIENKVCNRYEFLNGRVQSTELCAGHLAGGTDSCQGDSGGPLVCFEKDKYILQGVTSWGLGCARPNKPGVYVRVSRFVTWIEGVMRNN
Sequence of plasmin (P00747 97-580 partner limits assumed, species assumed): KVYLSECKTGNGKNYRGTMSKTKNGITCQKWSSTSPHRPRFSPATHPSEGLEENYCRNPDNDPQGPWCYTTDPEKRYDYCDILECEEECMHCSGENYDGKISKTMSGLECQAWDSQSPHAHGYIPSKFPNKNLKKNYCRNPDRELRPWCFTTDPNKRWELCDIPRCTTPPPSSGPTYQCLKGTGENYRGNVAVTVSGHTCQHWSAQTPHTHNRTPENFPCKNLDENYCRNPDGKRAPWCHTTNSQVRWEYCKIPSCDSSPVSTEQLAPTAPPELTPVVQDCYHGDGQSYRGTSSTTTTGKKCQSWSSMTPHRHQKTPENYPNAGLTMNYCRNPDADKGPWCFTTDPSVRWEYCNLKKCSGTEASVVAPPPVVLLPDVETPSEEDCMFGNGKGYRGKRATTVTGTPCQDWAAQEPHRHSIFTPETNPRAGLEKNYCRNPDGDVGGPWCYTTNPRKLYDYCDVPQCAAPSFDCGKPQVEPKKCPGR
Description: Protease cleavage assays: All protease cleavage assays were performed with a BioTek Cytation 5 Imaging Plate Reader, taking fluorescent measurements at 485/528 nm and 540/575 nm (excitation/emission) for read-outs measuring peptide substrates terminated with FITC (Fluorescein isothiocyanate) and 5-TAMRA (5-Carboxytetramethylrhodamine), respectively. Kinetic measurements were taken every minute over the course of 60-120 minutes at 37° C. West Nile Virus NS3 protease (WNVp) and Tobacco Etch Virus protease (TEVp), along with their substrates, inhibitors and buffers were obtained from Anaspec, Inc. (Fremont, Calif.). Phospholipase C (PLC), Phosphatidylinositol-Specific (from Bacillus cereus) was purchased from Thermo Fisher Scientific (Waltham, Mass.). Activity RFU measurements were normalized to time 0 measurement, and as such represent fold change in signal. Granzyme B (GzmB) was purchased from PeproTech, Inc. (Rocky Hill, N.J.). Thrombin and Factor XIa were purchased from Haematologic Technologies (Essex, Vt.). Outer Membrane Protease T (OmpT, Protease 7) was purchased from Lifespan Biosciences (Seattle, Wash.). C1r was purchased from Millipore Sigma (Burlington, Mass.). GzmB, Thrombin, Factor XIa, and C1r fluorescent peptide substrates were custom ordered from CPC Scientific (Sunnyvale, Calif.). OmpT fluorescent peptide substrate was custom ordered from Genscript (Piscataway, N.J.). See Table 1 and Table 2 for more information regarding proteases, substrates, and inhibitors.
For FIGS. 5G-5I and 5N-5Q: 2 uL of thrombin (10.1 mg/mL) or plasmin (6.9 mg/mL) were added to 18 uL of respective state 1 or state 0 substrate (2 uM). Velocities of Thrombin and Plasmin cutting their respective state 1 or state 0 substrates were calculated over the first 5 minutes of incubation. These velocities were normalized by the sum of the state 1 and state 0 velocity. Therefore, the values plotted as probability in FIG. 4 are relative velocities. […]

DH5α Escherichia coli = type: cell-based; conditions: 37° C., 1 hour
Description: FIGS. 8A-8B show the results of unlocking peptide caged liposomes with increasing peptide crosslinking densities (levels 0-8). Eight levels of increasing peptide cage crosslinking were used to determine the number of bacteria required to unlock each level. FIG. 8C is a graph showing bacterial cytotoxicity measurement of drug-loaded liposomes. Conditions are moving from left to right: Bacteria only control, bacteria plus free drug, bacteria plus drug-loaded liposome without lipase, and bacteria plus drug-loaded liposome with lipase. Samples were incubated with bacteria at 37° C. for eight hours and plated. CFU were quantified to estimate bacteria viability. Error bars are plotted as standard deviation (n=3). RFU stands for “Relative Fluorescence Unit” and is plotted as fold change (FC) from initial fluorescence at time=0. Bacterial Culture and Cytotoxicity Assay: DH5α Escherichia coli were cultured in LB broth (Lennox) at 37° C. and plated on LB agar (Lennox) plates. LB broth was purchased from Millipore Sigma (Burlington, Mass.) and LB agar was purchased from Invitrogen (Carlsbad, Calif.). AMP and locked AMP were custom ordered from Genscript (Piscataway, N.J.). […] Bacterial cell viability was measured by making eight 10-fold serial dilutions, and plating three 10 μL spots on an LB agar plate. Plates were incubated overnight at 37° C., and CFUs were counted. […]

state probability (relative cleavage velocity) after first U-gate (plasmin) [%]	state 0 probability (relative cleavage velocity) after second U-gate (plasmin; state 0 substrate added in large molar excess) [%]	Substance	cytolytic activity against bacteria compared to untreated controls (DH5α Escherichia coli; locked drug without protease)	reduction in bacterial colonies (DH5α Escherichia coli; protease-cleaved (TEVp))
45	93	5FAM-GLQRALEI-K(CPQ2)-k-C (5FAM-GLQRALEIK(CPQ2)[dK]C) [CC9, quenched fluorescent plasmin substrate (state 0)]	–	–
55	–	5FAM-KYLGRSYKV-K(CPQ2)-C (5FAM-KYLGRSYKVK(CPQ2)C) [CC6, quenched fluorescent protease substrate (state 1)]	–	–
–	–	EEEEEEEEENLYFQGRRRRRRRRR [Locked AMP p1, polyarginine AMP locked by polyglutamic acid via TEV-cleavable linker]	no significant cytolytic activity	significant reduction in bacterial colonies
